Test [1] deals with HIV-1 AD8 gp41 K601D (HIV-1 AD8). The test is described as follows: gp120 shedding assay (radioimmunoprecipitation of cell lysates and culture supernatants); 293T cells transfected with Env vectors, 35S pulse 45 min, chase 5-6 h; cell lysates and clarified supernatants immunoprecipitated with IgG14 and protein G Sepharose; reducing SDS-PAGE, phosphorimager; gp120-shedding index against WT.

In test [2] the target is HIV-1 AD8 gp41 (wild type), cut from Env gp160. The test is described as follows: radioimmunoprecipitation with HIVIG of metabolically labelled cell lysates and supernatants, SDS-PAGE, phosphorimager scanning.
In test [3] the target is HIV-1 AD8 gp41 K601N (HIV-1 AD8). The test is described as follows: gp120 shedding assay (radioimmunoprecipitation of cell lysates and culture supernatants); 293T cells transfected with Env vectors, 35S pulse 45 min, chase 5-6 h; cell lysates and clarified supernatants immunoprecipitated with IgG14 and protein G Sepharose; reducing SDS-PAGE, phosphorimager; gp120-shedding index against WT.

The target in test [4] is HIV-1 AD8 gp41 (wild type), cut from Env gp160 (HIV-1 AD8).
Test [5] concerns the target HIV-1 AD8 gp41 K601N (HIV-1 AD8).

Chain of C34, HR2-based fusion inhibitor peptide (P03375 628-661): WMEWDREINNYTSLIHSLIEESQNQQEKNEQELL

For HIV-1 AD8 gp120 T138N (natural protein), the gp120-gp41 association, fold improvement with respect to K601D in test [1] stood at 2 fold. As to “HIV-1 AD8 gp120 (wild type), cut from Env gp160 S144N”, in test [2], the other: gp120-shedding index came out at 0.6.

The substance “HIV-1 AD8 gp120 (wild type), cut from Env gp160 S188N” showed an other: gp120-shedding index in test [2] of 1.6. The substance “HIV-1 AD8 gp120 (wild type), cut from Env gp160 T138N” registered an other: gp120-shedding index in test [2] of 0.5. As for “HIV-1 AD8 gp120 (wild type), cut from Env gp160 (natural protein)”, the values for the gp120 shedding, fold with respect to WT in test [1] and in test [3] were 6.8 fold and 4.4 fold, respectively. For “HIV-1 AD8 gp120 (wild type), cut from Env gp160 N160Q”, the other: gp120-shedding index in test [2] came out at 0.7. The same measure, in the same setting: with “HIV-1 AD8 gp120 (wild type), cut from Env gp160 S143N” the figure was 0.6. C34, HR2-based fusion inhibitor peptide yielded an IC50 of C34 for inhibition of cell-cell fusion by WT Env (luciferase) in test [4] of 100 nM. This substance displayed an IC50 of C34 for inhibition of cell-cell fusion by ΔN139INN/K601N Env (luciferase) in test [5] of 100 nM. Turning to “HIV-1 AD8 gp120 (wild type), cut from Env gp160 S158N”, the other: gp120-shedding index in test [2] turned out to be 3.6.

The record behind these values is PMC3616969.
